# Source: patent EP4786492A1 (Simcere Zaiming Pharmaceutical Co., Ltd., dated 2026)
# Where a chain is given by its changes, count along the chain named.
# T1: human DLL3 on CHO-K1 hDLL3 cells (human, UniProt Q9NYJ7 27-492)
# T1 construct: also called human DLL3 recombinant cell line
# T1 sequence: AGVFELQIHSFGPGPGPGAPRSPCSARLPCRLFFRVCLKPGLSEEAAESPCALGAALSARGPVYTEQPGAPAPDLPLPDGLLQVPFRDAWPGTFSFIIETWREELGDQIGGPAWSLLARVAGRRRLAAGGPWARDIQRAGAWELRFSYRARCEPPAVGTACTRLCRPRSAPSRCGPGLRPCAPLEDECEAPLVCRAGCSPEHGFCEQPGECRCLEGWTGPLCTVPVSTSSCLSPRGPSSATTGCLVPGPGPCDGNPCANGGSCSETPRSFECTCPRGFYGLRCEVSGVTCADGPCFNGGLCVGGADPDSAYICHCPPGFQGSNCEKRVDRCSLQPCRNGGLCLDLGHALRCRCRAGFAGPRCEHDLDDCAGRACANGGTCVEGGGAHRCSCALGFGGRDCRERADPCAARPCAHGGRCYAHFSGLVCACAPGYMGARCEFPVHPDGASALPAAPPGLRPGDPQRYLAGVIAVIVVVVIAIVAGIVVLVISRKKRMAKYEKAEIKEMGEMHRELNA
# T2: human DLL3-his protein (human, UniProt Q9NYJ7 27-492)
# T2 construct: also called human DLL3 protein; DLL3 antigen protein; not shown: His tag
# T2 sequence: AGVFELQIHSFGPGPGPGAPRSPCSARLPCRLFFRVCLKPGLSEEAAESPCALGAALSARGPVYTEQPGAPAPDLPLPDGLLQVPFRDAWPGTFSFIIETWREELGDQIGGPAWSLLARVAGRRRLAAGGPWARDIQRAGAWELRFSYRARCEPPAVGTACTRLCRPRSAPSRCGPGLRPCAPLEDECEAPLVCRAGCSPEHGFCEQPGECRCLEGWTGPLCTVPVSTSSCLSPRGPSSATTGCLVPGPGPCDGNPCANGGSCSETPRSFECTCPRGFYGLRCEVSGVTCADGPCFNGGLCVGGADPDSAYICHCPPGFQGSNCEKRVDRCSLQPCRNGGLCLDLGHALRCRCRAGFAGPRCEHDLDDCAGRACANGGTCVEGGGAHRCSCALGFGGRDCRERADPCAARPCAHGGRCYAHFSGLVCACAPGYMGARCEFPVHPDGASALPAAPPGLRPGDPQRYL
# T3: mouse DLL3 on CHO K1-mDLL3 cells (mouse, UniProt O88516 33-490)
# T3 construct: also called mouse DLL3 recombinant cell line
# T3 sequence: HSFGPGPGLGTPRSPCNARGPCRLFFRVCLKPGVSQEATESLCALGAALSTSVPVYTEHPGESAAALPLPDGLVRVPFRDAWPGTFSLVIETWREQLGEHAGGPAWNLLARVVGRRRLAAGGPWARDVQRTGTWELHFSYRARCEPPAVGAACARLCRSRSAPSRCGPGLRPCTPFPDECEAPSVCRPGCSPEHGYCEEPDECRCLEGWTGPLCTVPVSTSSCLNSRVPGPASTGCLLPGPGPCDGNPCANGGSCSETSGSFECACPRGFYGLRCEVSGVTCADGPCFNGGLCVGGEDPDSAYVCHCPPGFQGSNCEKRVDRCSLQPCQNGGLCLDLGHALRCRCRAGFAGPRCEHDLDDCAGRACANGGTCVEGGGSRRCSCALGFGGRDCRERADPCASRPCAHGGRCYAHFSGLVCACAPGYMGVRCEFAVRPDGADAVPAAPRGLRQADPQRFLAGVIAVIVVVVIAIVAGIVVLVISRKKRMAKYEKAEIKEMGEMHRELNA
# T4: monkey DLL3 on CHO K1-cyno DLL3 cells (cynomolgus monkey)
# T4 construct: also called monkey DLL3 recombinant cell line
# T4 chain: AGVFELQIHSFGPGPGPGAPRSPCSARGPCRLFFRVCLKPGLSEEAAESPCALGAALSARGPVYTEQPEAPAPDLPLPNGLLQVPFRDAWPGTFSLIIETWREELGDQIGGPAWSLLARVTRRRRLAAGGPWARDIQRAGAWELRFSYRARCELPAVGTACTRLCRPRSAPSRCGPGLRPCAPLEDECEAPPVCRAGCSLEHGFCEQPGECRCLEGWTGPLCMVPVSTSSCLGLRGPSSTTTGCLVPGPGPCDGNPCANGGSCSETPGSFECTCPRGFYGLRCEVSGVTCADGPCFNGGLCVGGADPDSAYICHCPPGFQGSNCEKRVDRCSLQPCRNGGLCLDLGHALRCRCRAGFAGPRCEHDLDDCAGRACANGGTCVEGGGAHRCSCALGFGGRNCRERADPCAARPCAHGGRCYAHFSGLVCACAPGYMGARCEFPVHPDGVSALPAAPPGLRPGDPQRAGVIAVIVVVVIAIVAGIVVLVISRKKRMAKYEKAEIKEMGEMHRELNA
# T5: human DLL3 endogenously expressed on SHP77 and NCI-H82 cells (human, UniProt Q9NYJ7 27-618)
# T5 construct: whole, on cells; cells endogenously expressing DLL3; also called SHP77 cells; SHP-77 cells
# T5 sequence (looked up): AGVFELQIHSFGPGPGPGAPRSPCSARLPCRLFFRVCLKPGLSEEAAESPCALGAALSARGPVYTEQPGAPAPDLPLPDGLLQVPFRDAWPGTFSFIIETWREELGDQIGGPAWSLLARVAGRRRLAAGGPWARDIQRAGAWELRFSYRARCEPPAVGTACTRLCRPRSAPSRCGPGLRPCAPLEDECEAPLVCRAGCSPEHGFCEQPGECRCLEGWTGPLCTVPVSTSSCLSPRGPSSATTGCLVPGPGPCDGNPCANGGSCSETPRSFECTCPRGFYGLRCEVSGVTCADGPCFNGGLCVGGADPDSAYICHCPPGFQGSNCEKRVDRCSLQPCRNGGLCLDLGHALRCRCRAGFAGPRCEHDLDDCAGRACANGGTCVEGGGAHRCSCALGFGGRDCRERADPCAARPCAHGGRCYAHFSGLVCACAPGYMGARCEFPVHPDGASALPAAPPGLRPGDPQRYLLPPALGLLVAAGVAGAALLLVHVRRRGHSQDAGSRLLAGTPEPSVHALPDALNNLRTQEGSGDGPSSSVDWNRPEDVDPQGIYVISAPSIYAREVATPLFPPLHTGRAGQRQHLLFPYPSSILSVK
# B1: Hab009VL1aVH1-hFc (Fc fusion)
# scFv (part 1 of 2): DIVMTQSPLSLPVTPGEPASISCRASQTISDYLHWYLQKPGQSPQLLIKYASQSISGVPDRFSGSGSGSDFTLKISRVEAEDVGVYYCQQGHSFPLTFGQGTKLEIK
# scFv (part 2 of 2): EVQLVQSGAEVKKPGASVKVSCKASGYTFTSYWMHWVRQAPGQRLEWMGTIYPGNSDTRYNQKFKDRVTITADTSASTAYMELSSLRSEDTAVYYCTRSYDYGDLDYWGQGTTVTVSS
# notes: humanized mab009, VL-linker-VH-human IgG1 Fc; not shown: linker; human IgG1 Fc fragment
# B2: Hab009VL3aVH1-hFc (Fc fusion)
# scFv (part 1 of 2): B1 scFv (part 1 of 2) with P40S, G41H, S69T
# scFv (part 2 of 2): B1 scFv (part 2 of 2)
# notes: as for B1
# B3: Hab009VL2aVH1-hFc (Fc fusion)
# scFv (part 1 of 2): B1 scFv (part 1 of 2) with Q45R, S69T
# scFv (part 2 of 2): B1 scFv (part 2 of 2)
# notes: as for B1
# B4: Hab013VL2VH2a-hFc (Fc fusion)
# scFv (part 1 of 2): EIVLTQSPATLSLSPGERATLSCRASKSVSTSGFSYMHWYQQKPGQPPRLLIYLASNLESGIPARFSGSGSGTDFTLTISSLEPEDFAVYYCQHSRELPFTFGQGTKLEIK
# scFv (part 2 of 2): EVQLVQSGAEVKKPGSSVKVSCKASGYAFSNYWINWVRQAPGQGLEWMGQINPGDGDTIYNSKFKGRVTITADKSTSTAYMELSSLRSEDTAVYYCEREGRNYGDFAYWGQGTTVTVSS
# notes: humanized mab013, VL-linker-VH-human IgG1 Fc; not shown: linker; human IgG1 Fc fragment
# B5: Hab006VL1VH4-hFc (Fc fusion)
# scFv (part 1 of 2): DIQMTQSPSSLSASVGDRVTITCRATKSISKYLAWYQQKPGKAPKLLIFSGSTLQSGVPSRFSGSGSGTDFTLTISSLQPEDFATYYCQQHHEYPYTFGGGTKVEIK
# scFv (part 2 of 2): EVQLVQSGAEVKKPGASVKVSCKASGYTFTSYWMHWVRQAPGQRLEWMGVIDPSDSLANYNQEFKGRVTLTVDTSSSTAYMELSSLRSEDTAVYYCARDSTVVAPMDYWGQGTTVTVSS
# notes: humanized mab006, VL-linker-VH-human IgG1 Fc; also called Hab006VL1VL4-hFc; not shown: linker; human IgG1 Fc fragment
# B6: Hab006VL4VH1-hFc (Fc fusion)
# scFv (part 1 of 2): DIVMTQSPDSLAVSLGERATINCRATKSISKYLAWYQQKPGQTNKLLIFSGSTLQSGVPDRFSGSGSGTDFTLTISSLQAEDVAVYYCQQHHEYPYTFGGGTKVEIK
# scFv (part 2 of 2): B5 scFv (part 2 of 2) with L70I, S76A
# notes: humanized mab006, VL-linker-VH-human IgG1 Fc; also called Hab006VL4VL1-hFc; not shown: linker; human IgG1 Fc fragment
# B7: Hab006VL4VH2-hFc (Fc fusion)
# scFv (part 1 of 2): B6 scFv (part 1 of 2)
# scFv (part 2 of 2): B5 scFv (part 2 of 2) with S76A
# notes: humanized mab006, VL-linker-VH-human IgG1 Fc; also called Hab006VL4VL2-hFc; not shown: linker; human IgG1 Fc fragment
# B8: Hab014VL1VH2-hFc (Fc fusion)
# scFv (part 1 of 2): DIQMTQSPSSLSASVGDRVTITCKASEDIYNRLAWYQQKPGKVPKLLISGATSLETGVPSRFSGSGSGTDFTLTISSLQPEDVATYYCQQYWSLPWTFGGGTKVEIK
# scFv (part 2 of 2): EVQLVQSGAEVKKPGASVKVSCKASGYTFTDYYMNWVRQAPGQRLEWMGDINPNHGDTGYNQKFTGRVTLTVDKSASTAYMELSSLRSEDTAVYYCARNFFYYGTTYGWYFDVWGQGTTVTVSS
# notes: humanized mab014, VL-linker-VH-human IgG1 Fc; not shown: linker; human IgG1 Fc fragment
# B9: Hab014VL2VH1-hFc (Fc fusion)
# scFv (part 1 of 2): B8 scFv (part 1 of 2) with T69K
# scFv (part 2 of 2): B8 scFv (part 2 of 2) with L70I
# notes: as for B8
# B10: mab015 scFv-hFc (Fc fusion)
# scFv (part 1 of 2): NIVMTQSPKSMSMSVGERVTLSCKASENVGTYVSWFQQKPEQSPKLLIYGASNRYTGVPDRFTGSGSATDFTLTISSVQAEDLADYHCGQFYSFPCTFGGGTKLEIK
# scFv (part 2 of 2): EVKLEESGGGLVQPGGSMKLSCVASGITFSNFWMNWVRQSPEKGLEWVAQIRLKSDDYATHYAESVKGRFTISRDDSKGSVYLQMNNLRTEDTGIHYCTTGYYFDYWGQGTTLTVSS
# notes: human-murine chimeric scFv-hFc, VL-linker-VH-human IgG1 Fc; not shown: linker; Fc fragment of human IgG1
# B11: mab010 scFv-hFc (Fc fusion)
# scFv (part 1 of 2): DIQMTQSPASLSVSVGETVTITCRASENINSNLAWYQQKQGKSPQLLVYAATNLADGVPSRFSGSGSGTQFSLKISGLQSEDFGSYYCQHFWGLPWTFGGGTKLEIR
# scFv (part 2 of 2): QVQLQQSGAELARPGASMKLSCKASGYTFTSYGISWVKQITGQGLEWIGEIFPRSGNTYDNENFRGKATLTADKSSSTAYLEVRSLTSEDSAVYFCARTTVFAPYYFDYWGQGTTLTVSS
# notes: as for B10
# B12: mab009 scFv-hFc (Fc fusion)
# scFv (part 1 of 2): DIVMTQSPATLSVTPGDRVSLSCRASQTISDYLHWYQQRSHESPRLLIKYASQSISGIPSRFSGSGSGSDFTLSINSVEPEDVGVYYCQNGHSFPLTFGAGTKLELK
# scFv (part 2 of 2): EVQLQQSGTVLARPGASVKMSCKTSGYTFTSYWMHWVKQSPGQGLEWIGTIYPGNSDTRYNQKFKDKAYVTAVTSASTAYMELSSLTNEESAVYYCTRSYDYGDLDYWGQGTTLTVSS
# notes: as for B10
# Target: T1, human DLL3 on CHO-K1 hDLL3 cells
# Experiment: FACS, CHO-K1 hDLL3 cells
row,Binder,binding result
1,B1,binds
2,B2,binds
3,B3,binds
4,B4,binds
5,B5,binds
6,B6,binds
7,B7,binds
8,B8,binds
9,B9,binds

# Target: T2, human DLL3-his protein
# Experiment: ELISA
row,Binder,binding result
1,B10,binds
2,B11,binds
3,B12,binds
4,B1,binds
5,B2,binds
6,B3,binds
7,B4,binds
8,B5,binds
9,B6,binds
10,B7,binds
11,B8,binds
12,B9,binds

# Target: T3, mouse DLL3 on CHO K1-mDLL3 cells
# Experiment: FACS, CHO K1-mDLL3 cells
row,Binder,binding result
1,B1,binds
2,B2,binds
3,B3,binds
4,B4,binds
5,B5,binds
6,B6,binds
7,B7,binds
8,B8,binds
9,B9,binds

# Target: T4, monkey DLL3 on CHO K1-cyno DLL3 cells
# Experiment: FACS, CHO K1-cyno DLL3 cells
row,Binder,binding result
1,B10,binds
2,B11,binds
3,B1,binds
4,B2,binds
5,B3,binds
6,B5,binds
7,B6,binds
8,B7,binds
9,B8,binds
10,B9,binds

# Target: T5, human DLL3 endogenously expressed on …
# Experiment: FACS, SHP77 and NCI-H82 cells
row,Binder,binding result
1,B1,binds
2,B2,binds
3,B3,binds
4,B4,binds
5,B5,binds
6,B6,binds
7,B7,binds
8,B8,binds
9,B9,binds
